Measured values reported in patent publication US20220372138A1 (IOMX THERAPEUTICS, published 2022).
Where a chain is given by its changes, count along the chain named. Like-named read-outs stand apart in the source and are kept apart here.

What was measured:
[1] = biological target: T1, murine IGSF11 expressed on cells (mouse, UniProt P0C673 23-428); assay: IgG FACS MC38-wt
T1 construct: MC38-IGSF11, CT26-IGSF11, MC38-wt (naturally expresses murine IGSF11)
T1 sequence: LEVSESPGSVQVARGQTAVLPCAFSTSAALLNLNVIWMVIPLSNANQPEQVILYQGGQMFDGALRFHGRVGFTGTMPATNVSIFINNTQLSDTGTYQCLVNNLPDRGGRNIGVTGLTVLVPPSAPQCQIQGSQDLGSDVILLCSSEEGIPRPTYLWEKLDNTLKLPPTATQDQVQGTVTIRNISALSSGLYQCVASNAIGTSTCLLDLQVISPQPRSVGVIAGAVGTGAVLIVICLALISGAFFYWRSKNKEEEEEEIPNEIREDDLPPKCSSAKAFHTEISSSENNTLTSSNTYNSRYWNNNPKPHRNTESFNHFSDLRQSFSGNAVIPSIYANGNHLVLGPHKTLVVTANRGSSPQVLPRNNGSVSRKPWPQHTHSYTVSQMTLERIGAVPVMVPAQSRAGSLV
From the text: (§1) Unbound antibodies were removed by washing the cells three time with FACS buffer. Bound antibodies were detected with a mouse anti-human IgG antibody conjugated with AlexaFluor647.

[2] = biological target: T2, human IGSF11 (VSIG3) expressed on cells (human, UniProt Q5DX21 23-431); assay: IgG FACS Colo741
T2 sequence: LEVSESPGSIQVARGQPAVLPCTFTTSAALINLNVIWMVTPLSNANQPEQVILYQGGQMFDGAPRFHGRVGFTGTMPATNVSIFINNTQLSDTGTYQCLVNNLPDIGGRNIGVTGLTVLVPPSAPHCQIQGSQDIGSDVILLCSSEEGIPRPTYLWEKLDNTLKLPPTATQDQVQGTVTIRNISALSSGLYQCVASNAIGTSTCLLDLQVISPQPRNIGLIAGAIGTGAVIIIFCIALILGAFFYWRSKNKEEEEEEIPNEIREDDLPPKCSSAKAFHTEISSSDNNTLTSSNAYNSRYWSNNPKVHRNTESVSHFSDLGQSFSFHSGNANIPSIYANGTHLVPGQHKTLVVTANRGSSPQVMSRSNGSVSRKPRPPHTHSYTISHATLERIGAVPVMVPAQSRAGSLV
From the text: as §1

[3] = biological target: T3, IgC2 domain of human IGSF11 fused to murine IgG2a Fc (human, UniProt Q5DX21 137-241); assay: IgG ELISA
T3 construct: not shown: murine IgG2a Fc-region
T3 sequence: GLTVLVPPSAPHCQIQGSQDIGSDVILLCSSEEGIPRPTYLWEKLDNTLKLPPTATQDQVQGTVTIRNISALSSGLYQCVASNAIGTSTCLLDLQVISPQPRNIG

[4] = biological target: T4, full-length ECD of human IGSF11 fused to murine Fc (human, UniProt Q5DX21 23-241); assay: IgG ELISA
T4 construct: also called Fc-fusion IGSF11 ECD; not shown: murine Fc
T4 sequence: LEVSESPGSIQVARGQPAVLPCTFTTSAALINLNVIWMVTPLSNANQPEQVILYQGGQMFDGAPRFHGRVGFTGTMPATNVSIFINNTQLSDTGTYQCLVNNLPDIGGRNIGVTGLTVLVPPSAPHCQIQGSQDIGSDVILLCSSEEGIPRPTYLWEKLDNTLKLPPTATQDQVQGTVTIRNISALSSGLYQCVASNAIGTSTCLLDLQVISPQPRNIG

[5] = biological target: T5, extracellular domain (ECD) of human IGSF11 (VSIG3), recombinant (human, UniProt Q5DX21 23-241); assay: BLI
T5 construct: biotinylated where captured on streptavidin; tags of the reagent not always stated; also called IGSF11 (ECD domain); ECD-IGSF11
T5 sequence: T4 sequence

[6] = biological target: T2, human IGSF11 (VSIG3) expressed on cells; assay: FACS, M579-A2-luc cells with scrambled control siRNA (SC)
[7] = biological target: T6, human IGSF11 (VSIG3) ECD, His-tagged (human, UniProt Q5DX21 23-241); assay: ELISA: IGSF11-HIS coated, IgG1 dilution series, anti-human antibody-HRP, TMB
T6 construct: in part bought (SinoBiological 13094-H08H); also called HIS-IGSF11; IGSF11-HIS; not shown: His tag
T6 sequence: T4 sequence

[8] = biological target: T2, human IGSF11 (VSIG3) expressed on cells; assay: FACS, M579-A2-luc cells with IGSF11 siRNA (KD, knock-down control)
[9] = biological target: T5, extracellular domain (ECD) of human …; assay: SPR
[10] = biological target: T2, human IGSF11 (VSIG3) expressed on cells; assay: IgG1 FACS DMS 273
[11] = biological target: T6, human IGSF11 (VSIG3) ECD, His-tagged; assay: blocking ELISA: VSIR-Fc immobilised, IgG dilution series pre-incubated with 200 nM IGSF11 ECD-His, bound IGSF11 detected with anti-His-HRP
Method: All binding steps were for 1 hour at room temperature, and all washing steps were three times washing with PBS/Tween (0.05%).

[12] = biological target: T4, full-length ECD of human IGSF11 fused …; assay: ELISA: Fc-fusion IGSF11 ECD coated, IgG dilution series, anti-human IgG-HRP
Method: (§2) Binding of IgG antibodies to each of the full-length ECD of IGSF11, to the IgV domain of IGSF11 and to the IgC2 domain of IGSF11, was tested in the ELISA assay as follows: briefly, recombinant domains of Fc-fusion IGSF11 proteins were coated at 2 ug/mL on a 384-well Maxisorp plate. The surface was blocked with 2% (w/v) skim milk powder in PBST. […] After removing all unbound antibodies by 3 wash cycles with PBST, bound IgG ABPs were detected with a goat anti-human IgG antibody conjugated with horseradish peroxidase. After three wash cycles with PBST the ELISA was developed with TMB substrate.

[13] = biological target: T2, human IGSF11 (VSIG3) expressed on cells; assay: IgG1 FACS HEK-OE
[14] = biological target: T6, human IGSF11 (VSIG3) ECD, His-tagged; assay: IgG1 ELISA EC50 <0.02 nM
[15] = biological target: T2, human IGSF11 (VSIG3) expressed on cells; assay: FACS, DMS 273 cells with IGSF11 siRNA (KD, knock-down control)
[16] = biological target: T7, IgV domain of human IGSF11 fused to murine IgG2a Fc (human, UniProt Q5DX21 23-143); assay: BLI: IgV domain-mFc captured on the sensor, IgG1 in solution, concentrations not given [Cont.) D]
T7 construct: not shown: murine IgG2a Fc-region
T7 sequence: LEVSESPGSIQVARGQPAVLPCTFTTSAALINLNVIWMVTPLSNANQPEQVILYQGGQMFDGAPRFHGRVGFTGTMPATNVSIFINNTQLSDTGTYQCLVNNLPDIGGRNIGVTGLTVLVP

[17] = biological target: T2, human IGSF11 (VSIG3) expressed on cells; assay: FACS, DMS 273 cells with scrambled control siRNA (SC)
[18] = biological target: T3, IgC2 domain of human IGSF11 fused to …; assay: ELISA: IgC2 domain-mFc fusion coated, IgG dilution series, anti-human IgG-HRP
Method: as §2

[19] = biological target: T5, extracellular domain (ECD) of human …; assay: BLI apparent affinity, IgG on AHC sensor, IGSF11 ECD 100 nM
From the text: Briefly, various APBs were loaded on an optical biosensor via a commercially available Capture System (AHC sensors, ForteBio).

[20] = biological target: T4, full-length ECD of human IGSF11 fused …; assay: ELISA: Fc-fusion IGSF11 ECD coated, IgG dilution series, anti-human IgG-HRP; remark: listed apart in the source
Method: as §2

[21] = biological target: T7, IgV domain of human IGSF11 fused to …; assay: IgG ELISA
Method: as §2

[22] = biological target: T3, IgC2 domain of human IGSF11 fused to …; assay: BLI: IgC2 domain-mFc captured on the sensor, IgG1 in solution, concentrations not given [Cont.) D]
[23] = biological target: T6, human IGSF11 (VSIG3) ECD, His-tagged; assay: IgG1 ELISA EC50 0.02-0.05 nM
[24] = biological target: T1, murine IGSF11 expressed on cells; assay: IgG FACS CT26-IGSF11
From the text: as §1

[25] = biological target: T1, murine IGSF11 expressed on cells; assay: IgG FACS, murine IGSF11 cell lines of Table 13.4; murine IGSF11 cell lines (MC38-IGSF11, MC38-wt)
[26] = biological target: T2, human IGSF11 (VSIG3) expressed on cells; assay: IgG FACS MDA-MB-231-IGSF11
From the text: as §1

[27] = biological target: T1, murine IGSF11 expressed on cells; assay: IgG FACS MC38-IGSF11
From the text: as §1

[28] = biological target: T3, IgC2 domain of human IGSF11 fused to …; assay: IgG ELISA; remark: listed apart in the source
[29] = biological target: T4, full-length ECD of human IGSF11 fused …; assay: IgG ELISA; remark: listed apart in the source
[30] = biological target: T2, human IGSF11 (VSIG3) expressed on cells; assay: IgG FACS, human IGSF11 cell lines of Table 13.4; human IGSF11 cell lines (Colo741, MDA-MB-231-IGSF11)

B1: D-116 (IgG format) (antibody, V domains shown)
VH: EVQLLESGGGLVQPGGSLRLSCAASGFTFKHSAISWVRQAPGKGLEWVSAISYGGGSQYYADSVKGRFTISRDNSKNTLYLQMNSLRAEDTAVYYCARDSRDAYGVAFDLWGQGTMVTVSS
VL: ASVLTQPPSVSAAPGQKVTISCSGSSSNIGNNYVSWYQQLPGTAPKLLIYDNNKRPSGIPDRFSGSKSGTSATLGITGLQAEDEADYYCQSYGHRSFVFGGGTKLTVL
EC50 [1]: < 0.1 nM | EC50 [2]: < 0.5 nM

B2: A-006 (IgG1 format) (antibody, V domains shown)
VH: EVQLVESGGGLIQPGGSLRLSCAASGFTVSSNYMSWVRQAPGKGLEWVSVIYSGGSTYYADSVKGRFTISRDNSKNTLYLQMNSLRAEDTAVYYCARGNPYYYGDLQVNFDYWGQGTLVTVSS
VL: QAVVTQEPSLTVSPGGTVTLTCASSTGAVTSGYYPNWFQQKPGQAPRPLIYSTSNKHSWTPARFSGSLLGGKAALTLSGVQPDDEAEYYCLLYYGGDWVFGGGTKLTVL
notes: human IgG1 format; also called A-006-like ABP
EC50 [3]: < 1 nM | EC50 [4]: < 1 nM | Kd [5]: 1 to 10 nM | % binding (FACS heat-map) [6]: 75.3% | EC50 (read off the curve) [7]: ~0.01 nM | % binding (FACS heat-map) [8]: 2.59% | Kd [9]: 250 to 500 nM | EC50 [10]: > 50 nM | IC50 (read off the curve) [11]: ~4 nM | EC50 (read off the curve) [12]: ~0.5 nM | EC50 [13]: 10 to 50 nM | EC50 [14]: < 0.02 nM | % binding (FACS heat-map) [15]: 5.72% | binding result [16]: no binding | % binding (FACS heat-map) [17]: 81.1% | EC50 (read off the curve) [18]: ~0.4 nM | Kd [19]: < 15 nM

B3: A-024 (IgG1 format) (antibody, V domains shown)
VH: QMQLVQSGAEVKKPGSSVKVSCKASGGTFSSYAISWVRQAPGQGLEWMGWISAYNGNTNYAQKLQGRVTMTTDTSTSTAYMELRSLRSDDTAVYYCASLGSYGYTGAFDIWGQGTMATVSS
VL: QSALTQPASVSGSPGQSITISCTGTSSDVGGYNYVSWYQQHPGKAPKLMIYEVSNRPSGVSNRFSGSKSGNTASLTISGLQAEDEADYYCSSYTSSSTLVVFGGGTKLTVL
notes: also called A-024-like ABP
EC50 (read off the curve) [20]: ~0.4 nM | EC50 [21]: < 1 nM | EC50 [4]: < 1 nM | Kd [9]: > 500 nM | EC50 [10]: < 10 nM | binding result [22]: no binding | EC50 [23]: 0.02 to 0.05 nM

B4: C-005 (IgG1 format) (antibody, V domains shown)
VH: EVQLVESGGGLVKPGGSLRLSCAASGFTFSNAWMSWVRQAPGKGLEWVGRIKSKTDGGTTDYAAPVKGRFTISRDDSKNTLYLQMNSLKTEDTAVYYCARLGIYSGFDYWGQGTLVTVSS
VL: SYELTQPPSVSVSPGQTASITCSGDKLGDKYASWYQQKPGQSPVLVIYQDSKRPSGIPERFSGSNSGNTATLTISGTQAEDEADYYCHSYTGKPSQVVFGGGTKLTVL
EC50 [24]: < 20 nM | EC50 [25]: ~2 nM | EC50 [26]: < 10 nM | EC50 [27]: < 20 nM | EC50 [28]: < 1 nM | EC50 [29]: < 1 nM | EC50 [30]: ~2 nM | Kd [19]: < 15 nM

B5: D-223 (IgG format) (antibody, V domains shown)
VH: EVQLVESGGGLVKPGGSLRLSCAASGFTFSHAWISWVRQAPGKGLEWVGQIKGGPGSGGTSYAEPVKGRFTISRDDSKNTLYLQMNSLKTEDTAVYYCARLGIYSGFDYWGQGTLVTVSS
VL: B4 VL with T91L, G92H, K93L, S95P, Q96T
EC50 [1]: < 0.5 nM | EC50 [2]: < 0.5 nM
